The experiment deals with T1, nSR100 (Mus musculus, UniProt Q8BKA3).
T1 construct: host or cells: mouse N2A cells
T1 sequence (Q8BKA3 1-608): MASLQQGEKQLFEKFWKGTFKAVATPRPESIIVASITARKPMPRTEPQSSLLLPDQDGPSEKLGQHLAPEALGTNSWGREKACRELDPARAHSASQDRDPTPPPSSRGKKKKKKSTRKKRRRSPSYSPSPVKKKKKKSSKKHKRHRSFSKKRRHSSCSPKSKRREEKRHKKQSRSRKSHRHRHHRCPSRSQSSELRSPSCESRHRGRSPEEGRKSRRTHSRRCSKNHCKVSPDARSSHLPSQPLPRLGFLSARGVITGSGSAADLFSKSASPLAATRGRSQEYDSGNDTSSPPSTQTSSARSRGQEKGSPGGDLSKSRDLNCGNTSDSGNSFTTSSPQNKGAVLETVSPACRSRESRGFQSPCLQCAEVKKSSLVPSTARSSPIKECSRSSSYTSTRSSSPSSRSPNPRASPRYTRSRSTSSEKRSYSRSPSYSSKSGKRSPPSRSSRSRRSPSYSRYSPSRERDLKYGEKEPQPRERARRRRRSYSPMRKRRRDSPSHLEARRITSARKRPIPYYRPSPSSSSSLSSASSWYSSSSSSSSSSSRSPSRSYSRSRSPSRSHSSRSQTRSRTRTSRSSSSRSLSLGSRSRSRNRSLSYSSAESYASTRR
Put plainly: AP-MS nSR100 interaction partners from mouse N2A cells (Table 5). Format: binding. As to conditions: for AvgP (average of the SAINT scores) / MaxP (maximal SAINT score): bait Srrm4; for FoldChange between the prey Avg spectra of the bait and control purifications: bait Srrm4, 0.1 added to prevent division by 0; for AvgSpec (average number of spectra per replicate): bait Srrm4, 2 replicates; for Spectra (number of spectra for the prey in the purification of the bait): AP-MS; for SpecSum: bait Srrm4, sum of spectra over 2 replicates.

[1] abbreviates: bait Srrm4, biological replicate 1 (first number of the cell).
Where [2] appears, read: bait Srrm4, biological replicate 2 (second number of the cell).

Excerpt: By applying affinity purification coupled to mass-spectrometry (AP-MS), several interaction nSR100 partner proteins were detected that provide insight into mechanisms of post-translational regulation of nSR100 levels.

B1: Tpi1 (protein, UniProt P17751 2-249, looked up)
Triosephosphate isomerase: APTRKFFVGGNWKMNGRKKCLGELICTLNAANVPAGTEVVCAPPTAYIDFARQKLDPKIAVAAQNCYKVTNGAFTGEISPGMIKDLGATWVVLGHSERRHVFGESDELIGQKVSHALAEGLGVIACIGEKLDEREAGITEKVVFEQTKVIADNVKDWSKVVLAYEPVWAIGTGKTATPQQAQEVHEKLRGWLKSNVNDGVAQSTRIIYGGSVTGATCKELASQPDVDGFLVGGASLKPEFVDIINAKQ
On to B1, for which the “AvgP (average of the SAINT scores)” value is listed as 0.87; the “MaxP (maximal SAINT score)” value came to 0.87; the “FoldChange between the prey Avg spectra of the bait and control purifications” value (“FoldChange between the prey Avg spectra” below) is 3.33; the “AvgSpec (average number of spectra per replicate)” value amounted to 10. The molecule further had a SpecSum of 20. Further, the “Spectra (number of spectra for the prey in the purification of the bait)” value under setting [1] is reported as 10|10. The “Spectra (number of spectra for the prey in the purification of the bait)” value under setting [2] is 10|10.

B2: Ap2a1 (protein, UniProt P17426 1-977, looked up)
AP-2 complex subunit alpha-1: MPAVSKGDGMRGLAVFISDIRNCKSKEAEIKRINKELANIRSKFKGDKALDGYSKKKYVCKLLFIFLLGHDIDFGHMEAVNLLSSNKYTEKQIGYLFISVLVNSNSELIRLINNAIKNDLASRNPTFMCLALHCIANVGSREMGEAFAADIPRILVAGDSMDSVKQSAALCLLRLYKASPDLVPMGEWTARVVHLLNDQHMGVVTAAVSLITCLCKKNPDDFKTCISLAVSRLSRIVSSASTDLQDYTYYFVPAPWLSVKLLRLLQCYPPPEDAAVKGRLVECLETVLNKAQEPPKSKKVQHSNAKNAILFETISLIIHYDSEPNLLVRACNQLGQFLQHRETNLRYLALESMCTLASSEFSHEAVKTHIDTVINALKTERDVSVRQRAADLLYAMCDRSNAKQIVSEMLRYLETADYAIREEIVLKVAILAEKYAVDYSWYVDTILNLIRIAGDYVSEEVWYRVLQIVTNRDDVQGYAAKTVFEALQAPACHENMVKVGGYILGEFGNLIAGDPRSSPPVQFSLLHSKFHLCSVATRALLLSTYIKFINLFPETKATIQGVLRAGSQLRNADVELQQRAVEYLTLSSVASTDVLATVLEEMPPFPERESSILAKLKRKKGPGAASALDDSRRDTSSNDINGGVEPTPSTVSTPSPSADLLGLRAAPPPAAPPAPVGGNLLVDVFSDGPTAQPSLGPTPEEAFLSELEPPAPESPMALLADPAPAADPGPEDIGPPIPEADELLNKFVCKNSGVLFENQLLQIGVKSEFRQNLGRMYLFYGNKTSVQFQNFLPTVVHPGDLQTQLAVQTKRVAAQVDGGAQVQQVLNIECLRDFLTPPLLSVRFRYGGTAQSLTLKLPVTINKFFQPTEMAAQDFFQRWKQLSLPLQEAQKIFKANHPMDAEVTKAKLLGFGSALLDNVDPNPENFVGAGIIQTKALQVGCLLRLEPNAQAQMYRLTLRTSKEPVSRHLCELLAQQF
For the molecule B2, the “AvgP (average of the SAINT scores)” value is listed as 1; the “MaxP (maximal SAINT score)” value came to 1; the “FoldChange between the prey Avg spectra” value was 7.2; the “AvgSpec (average number of spectra per replicate)” value came to 54. The molecule further displayed a SpecSum of 108. Also, the “Spectra (number of spectra for the prey in the purification of the bait)” value under setting [1] came to 46. Also, the “Spectra (number of spectra for the prey in the purification of the bait)” value under setting [2] is 62.

B3: Tfip11 (protein, UniProt Q9ERA6 1-838, looked up)
Tuftelin-interacting protein …: MSLSHLYRDGEGHLDDDDDDERENFEITDWDLQNEFNPNRQRHWQTKEEATYGVWAERDSDEERPSFGGKRARDYSAPVNFISAGLKKGAAEEADSEDSDAEEKPVKQEDFPKDLGPKKLKTGGNFKPSQKGFSGGTKSFMDFGSWERHTKGIGQKLLQKMGYVPGRGLGKNAQGIINPIEAKQRKGKGAVGAYGSERTTQSLQDFPVADSEEEAEEEFQKELSQWRKDPSGSKKKPKYSYKTVEELKAKGRVSKKLTAPQKELSQVKVIDMTGREQKVYYSYSQISHKHSVPDEGVPLLAQLPPTAGKEARMPGFALPELEHNLQLLIERTEQEIIQSDRQLQYERDMVVSLSHELEKTAEVLAHEERVISNLSKVLALVEECERRMQPHGADPLTLDECARIFETLQDKYYEEYRLADRADLAVAIVYPLVKDYFKDWHPLEDGSYGTQIISKWKSLLENDQLLSHSSQDLSSDAFHRLMWEVWMPFVRNVVAQWQPRNCEPMVDFLDSWAHIIPVWILDNILDQLIFPKLQKEVDNWNPLTDTVPIHSWIHPWLPLMQARLEPLYSPVRSKLSSALQKWHPSDASAKLILQPWKEVLTPGSWEAFMLRNIVPKLGMCLGELVINPHQQHMDAFYWVMDWEGMISVSSLVGLLEKHFFPKWLQVLCSWLSNSPNYEEITKWYLGWKSMFSDQVLAHPSVKDKFNEALDIMNRAVSSNVGAYMQPGARENIAYLTHTERRKDFQYEAMQERREAENMAQRGIGVAASSVPMNFKDLIETKAEEHNIVFMPVIGKRHEGKQLYTFGRIVIYIDRGVVFVQGEKTWVPTSLQSLIDMAK
As for B3, the “AvgP (average of the SAINT scores)” value turned out to be 1; the “MaxP (maximal SAINT score)” value worked out at 1; the “FoldChange between the prey Avg spectra” value came out at 40; the “AvgSpec (average number of spectra per replicate)” value came out at 4. The SpecSum amounted to 8. Also, the “Spectra (number of spectra for the prey in the purification of the bait)” value under setting [1] is on record as 5. Besides, the “Spectra (number of spectra for the prey in the purification of the bait)” value under setting [2] was determined as 3.

B4: Cwc27 (protein, UniProt Q3TKY6 2-469, looked up)
Spliceosome-associated …: SNIYIQEPPTNGKVLLKTTAGDIDIELWSKEAPKACRNFIQLCLEAYYDNTIFHRVVPGFIVQGGDPTGTGTGGESIYGAPFKDEFHSRLRFNRRGLVAMANAGPHDNGSQFFFTLGRADELNNKHTIFGKVTGDTVYNMLRLTEVDIDDEERPRNPHRIKSCEVLFNPFDDITPREIKKPKNEKPEEEVKKLKPKGTKNFSLLSFGEEAEEEEEEVNRVSQSMKGRSKSSHDLLKDDPHLSSVPAVESEKDDATGDLEDDGEDDSAERDEYMEDDEKNLMRERIAKRLKKDASASVKSAGDGEKKPASRSEELRKEARQLKRELLAAKQKKETAIKVEEGREEEEAAPDGAVAEYRREKQKYEALRKQQPKKGTSREDQTLALLSQFKSKLTQAITETPENSVPEAEVEDDEGWMSHVLQFEDKTRKVKDASMQDSDTFEIYDPRNPVNKRRREESKKLLREKKERR
As for B4, the “AvgP (average of the SAINT scores)” value is given as 1; the “MaxP (maximal SAINT score)” value came to 1; the “FoldChange between the prey Avg spectra” value came out at 85; the “AvgSpec (average number of spectra per replicate)” value amounted to 8.5. The molecule further displayed a SpecSum of 17. The “Spectra (number of spectra for the prey in the purification of the bait)” value under setting [1] was found to be 6. Besides, the “Spectra (number of spectra for the prey in the purification of the bait)” value under setting [2] stood at 11.

B5: Rbm39 (protein, UniProt Q8VH51 2-530, looked up)
RNA-binding protein 39: ADDIDIEAMLEAPYKKDENKLNSANGHEERSKKRKKSKSRSRSHERKRSKSKERKRSRDRERKKSKSRERKRSRSKERRRSRSRSRDRRFRGRYRSPYSGPKFNSAIRGKIGLPHSIKLSRRRSRSKSPFRKDKSPVREPIDNLTPEERDARTVFCMQLAARIRPRDLEEFFSTVGKVRDVRMISDRNSRRSKGIAYVEFVDVSSVPLAIGLTGQRVLGVPIIVQASQAEKNRAAAMANNLQKGSAGPMRLYVGSLHFNITEDMLRGIFEPFGRIESIQLMMDSETGRSKGYGFITFSDSECAKKALEQLNGFELAGRPMKVGHVTERTDASSASSFLDSDELERTGIDLGTTGRLQLMARLAEGTGLQIPPAAQQALQMSGSLAFGAVAEFSFVIDLQTRLSQQTEASALAAAASVQPLATQCFQLSNMFNPQTEEEVGWDTEIKDDVIEECNKHGGVIHIYVDKNSAQGNVYVKCPSIAAAIAAVNALHGRWFAGKMITAAYVPLPTYHNLFPDSMTATQLLVPSRR
B5: the “AvgP (average of the SAINT scores)” value came to 1; the “MaxP (maximal SAINT score)” value is on record as 1; the “FoldChange between the prey Avg spectra” value was found to be 5.46; the “AvgSpec (average number of spectra per replicate)” value is on record as 65.5. The SpecSum is 131. Under setting [1], the “Spectra (number of spectra for the prey in the purification of the bait)” value was determined as 65. The “Spectra (number of spectra for the prey in the purification of the bait)” value under setting [2] is on record as 66.

For the origin of these results see US10772928B2, “Modulation and detection of a neuronal alternative splicing regulatory network for treatment and diagnosis of neurological disorders” (The Governing Council of the University of Toronto, priority 2014, dated 2020).
